Experimental data reported in patent publication US20240010704A1, “CHIMERIC SENSOR PROTEIN AND METHODS OF USE THEREOF” (Universitaet Leipzig, priority 2020, published 2024).

Key:
[1] = test system: lexAop-FLuc reporter in Drosophila Schneider 2 (S2) cells; experiment: Luciferase (lexAop-FLuc) reporter assay of NRS sensor constructs in S2 cells; assay type: cell-based; conditions: S2 cells; FIG. 9
Source text: In order to conceptually establish the approach to fuse heterologous ECRs to the Notch^ITS to suppress its proteolytic activation, a sensor protein containing 4 immunoglobulin (Ig) domains of the human CD4 receptor fused to the Notch^ITS was engineered^28 (FIG. 7A).
As a positive control a constitutively active N^ECN-LexA receptor^34 with a constantly exposed S2 cleavage site was included (FIG. 7A,B).
Next, the extracellular CD4 repeats of the sensor protein were replaced with the ECR of an aGPCR, the Latrophilin/ADGRL-homolog CIRL/CG8639 (calcium independent receptor of α-latrotoxin) to enable the NRS to detect the physical dissociation of the NTF-CTF complex within the GAIN domain when appended to the Notch^ITS. Thus, the entire ECR of CIRL (including the GAIN domain, GPS, tethered agonist segment and predicted linker to the 7TM domain) was N-terminally fused to the NRS core (CIRL-NRS-LexA; FIG. 9). […] In order to distinguish between these two possibilities, we mutated the GPS of the sensor at the −2 position of its catalytic triad and replaced the conserved Histidin by an Alanine (FIG. 9) to block GAIN domain self-cleavage and eventual NTF release. […] This set of experiments establishes that the CIRL-NRS-LexA NRS can be used for monitoring the integrity of the NTF-CTF heterodimer clamped by the GAIN domain of CIRL.
For transfection, mini- or midi-prepped plasmid DNA (Qiagen) for each construct was adjusted to a stock concentration 100 ng/μl using a nanophotometer (Implen). For individual transfections a total amount of 200 ng DNA per 96-well plate well was used and always contained 30 ng of lexAop>FLuc2 (test construct reporter) and Act5.1Cp>RLuc (transfection control reporter), respectively. Test constructs (X-NRS-LexA) and TEV protease plasmids were added at 1:1 ratio (equimolarly adjusted to lexAop>FLuc2) to the DNA mixes; each DNA mix was supplemented with empty pBSK-SK+ vector (Stratagene) to 200 ng. S2 cells were cultured in Schneider's Drosophila medium (Invitrogen, Cat. no. 21720-024). Cultures were maintained in an air incubator at 25° C. S2 cells were split and plated into individual wells of a 96-well plate at a concentration of 5×10^5/well on day 0. 24 hours after plating (day 1), cells were transfected with Lipofectamine 2000 (Invitrogen, #11668019) with the suitable 1:1 plasmid/reagent mixture according to manufacturer's instructions and incubated for 48 hours. When induction of the metallothionein-promoter was required, CuSO4 stock medium was added in each well of the experiment to a final concentration of 0.5 mM CuSO4 24 hrs after transfection (day 2).
Cells were lysed on day 3 (48 hrs after transfection) and luciferase measurements with the Dual-Glo luciferase assay system (Promega) were performed according to the manufacturer's protocol. […] Lysates were analyzed in 96-well plates with a Victor2 plate reader luminometer (PerkinElmer). Firefly and Renilla luciferase luminescence signals were collected for 10 s. Relative luciferase activities were calculated for each sample individually as principally described in Potter et al. (ref. 23) according to the following formula: […]
where n=number of control samples; F=Firefly luciferase luminescence signal; R=Renilla luciferase luminescence signal; Empty=lexAop>FLuc2+Ac5.1p>RLuc+BSK-SK+. Each condition was executed at least in triplicate, the average and SEM were determined for each condition, and statistical significance was evaluated using Student's t test. […]

[2] = test system: Drosophila melanogaster; experiment: In vivo expression analysis of genomically integrated cirl-NRS sensors (transcriptionally activated mCherry reporter); conditions: adult animals; FIG. 11
Source text: To test the utility of the NRS sensor principle in vivo, an existing genomic engineering platform^13,35 was used to encode NRS sensors in alleles of the adhesion GPCR cirl/CG8639 of Drosophila melanogaster. This places CIRL-NRS expression under the endogenous regulatory control of the cirl locus (FIG. 10A). The NRS design was adapted to generate minigenes for cirl-NRS-LexA, cirl^H>A-NRS-LexA and cirl-NRS^S3-LexA by fusing the genomic fragment encoding the CIRL-ECR to the NRS-LexA cDNA (FIG. 10A,B). The resulting transgenes were inserted in the cirl gene using phiC31-assisted transformation generating fly stocks expressing the different sensors variants from the cirl locus.
Next, the functionality of CIRL-NRS was further studied in anatomical expression analyses.
To control for potential misexpression inherent to the LexA transcriptional reporter, additional cirl-NRS transgenes alternatively terminating in Ga/4 or QF2 transcription factor cassettes were generated an analysed.

B1: CIRL-NRS^S3-LexA: NTF release sensor for dmCIRL, S3 cleavage site mutated (disabled γ-secretase recognition) (protein)
chain: MKLCILLAVVAFVGLSLGETGFPKSLSVLNSRCAHKQSCGVLAATSMFGDPCPGTHKYLEAHYQCISAAQTSTTTNRPSPPPWVLSNGPPIFGNGSGLIHPPGVGAGAPPPPRLPTLPGVVGISGNPGLFNVPPQHTAVTHSTPSSSTTAVGGGRLKGGATSTTTTKHPAGRHDGLPPPPQLHHHHNHHGEDTASPTKPSSKLPAGGNATSPSNTRILTGVGGSGTDDGTLLTTKSSPNRPPGTAASGSVVPGNGSVVRTINNINLNAAGMSGGDDESKLFCGPTHARNLYWNMTRVGDVNVQPCPGGAAGIAKWRCVLMKRIPDSGYDEYDDDISSTTPAPSGGDCLHNSSSCEPPVSMAHKVNQRLRNFEPTWHPATPDLTQCRSLWLNNLEMRVNQRDSSLISIANDMSEVTSSKTLYGGDMLVTTKIIQTVSEKMMHDKETFPDQRQREAMIMELLHCVVKTGSNLLDESQLSSWLDLNPEDQMRVATSLLTGLEYNAFLLADTIIRERSVVQKVKNILLSVRVLETKTIQSSVVFPDSDQWPLSSDRIELPRAALIDNSEGGLVRIVFAAFDRLESILKPSYDHFDLKSSRSYAILSNDSDVNAGEIQQRLRILNSKVISASLGKGRHIQLSQPITLTLKHLKTENVTNPTCVFWNYIDHAWSANGCSLESTNRTHSVCSCNHLTNFAILMDVVDEHQHSLFTMFDGNMRPRIDTAAKHQLRNDFQIHSVRGIKNPGDEDNGEPPANVKYVITGIILVIIALAFFGMKLSTQRKRSGPPKLKALTARQQEVFDLIRDHISQTGMPPTRAEIAQRLGFRSPNAAEEHLKALARKGVIEIVSGASRGIRLLQEEEEGLPLVGRVAAGEPLLAQQHIEGHYQVDPSLFKPNADFLLRVSGMSMKDIGIMDGDLLAVHKTQDVRNGQVVVARIDDEVTVKRLKKQGNKVELLPENSEFKPIVVDLRQQSFTIEGLAVGVIRNGDWLEFPGIRRPAGIPGDLAPPTDVSLGDELHLDGEDVAMAHADALDDFDLDMLGDGDSPGPGFTPHDSAPYGALDMADFEFEQMFTDALGIDEYGGASRYLDPAFLYKVVSSATMDYKDHDGDYKDHDIDYKDDDDKHRST
modifications: Full-length NTF release sensor for dmCIRL (S3 cleavage site mutated)
reporter activity in luciferase assays [1]: no reporter activity | sensor activity (lexAop-mCherry reporter expression) [2]: completely abrogated
